Among the data in the RNAGym collection of RNA variant scans (doi:10.1093/molbev/msab373) are reverse-splicing fitness values, retold here.

To fix the notation:
B1: Azoarcus group I ribozyme (parent)
chain: GUGCCUUGCGCCGGGAAACCACGCAAGGGAUGGUGUCAAAUUCGGCGAAACCUAAGCGCCCGCCCGGGCGUAUGGCAACGCCGAGCCAAGCUUCGGCGCCUGCGCCGAUGAAGGUGUAGAGACUAGACGGCACCCACCUAAGGCAAACGCUAUGGUGAAGGCAUAGUCCAGGGAGUGGCGAAAGUCACACAAACCGG

Variants of B1 are the subject of this data set. As to the kind of experiment: reverse-splicing fitness (ratio to wild type); higher = more active; in vitro selection; Mg2+ level not given. The procedure, abridged: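 An in vitro group I ribozyme library with randomized positions was T7-transcribed and gel-purified. In triplicate, 10 pmol RNA in EPPS pH 7.5 was reacted with 50 pmoles of a 30-nt RNA substrate for 1 h at 37 °C across several added MgCl2 levels (1–48 mM), then stopped with EDTA. Products were reverse transcribed from a substrate-complementary primer, PCR-amplified and sequenced (HiSeq 4000). Fitness is a variant's read proportion after selection over that before, normalised to wild type.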
For the variant C82A A111G A145G C150G, the reverse-splicing fitness was 0.0329.
Turning to C82A A111G A145G C150U, the reverse-splicing fitness amounted to 0.32.
Turning to C82A A111G A145G C150A, the reverse-splicing fitness amounted to 0.0514.
As to C82A A111G A120U A145G C150G C169G U176G, the reverse-splicing fitness came to 0.00316.
In the case of C82A A111G A120U A145G C150G C169G U176A, the reverse-splicing fitness is 0.00925.
In the case of C82A A111G A120U A145G C150G C169G U176C, the reverse-splicing fitness turned out to be 0.00646.
Take C82A A111G A145C C150A C169A U176A: the reverse-splicing fitness came to 0.0122.
As for C82A A111G A145C C150A C169A U176G, the figure is 0.00644.
Take C82A A111G A145C C150A C169A U176C: the reverse-splicing fitness came to 0.00723.
As for C82A A111G A120U C150U, the reverse-splicing fitness came to 0.0201.
As for C82A A111G A120U C150A, the figure is 0.00855; as for C82A A111G A120U C150G, 0.00849.
With C82A A111G A145G C169A U176G, the reverse-splicing fitness turned out to be 0.00591.
As for C82A A111G A145G C169A U176A, the reverse-splicing fitness was 0.0201.
As for C82A A111G A145G C169A U176C, the reverse-splicing fitness amounted to 0.0253.
For C82A A111G A120U A145U C150G C169U U176A, the reverse-splicing fitness came out at 0.00252.
Turning to C82A A111G A120U A145U C150G C169U U176G, the reverse-splicing fitness worked out at 0.0026.
For the variant C82A A111G A120U A145U C150G C169U U176C, the reverse-splicing fitness is 0.00353.
For the variant C82A A111G A120U A145U C169A U176A, the reverse-splicing fitness turned out to be 0.00218.
C82A A111G A120U A145U C169A U176G: the reverse-splicing fitness came to 0.00145.
With C82A A111G A120U A145U C169A U176C, the reverse-splicing fitness amounted to 0.00249.
Regarding C82A A111G A145C C150A C169U, the reverse-splicing fitness was found to be 0.0104.
In the case of C82A A111G A145C C150A C169G, the reverse-splicing fitness is 0.00918.
On to C82A A111G A145C C150A C169A, for which the reverse-splicing fitness turned out to be 0.00955.
As to C82A A111G A145G C150U U176C, the reverse-splicing fitness was 0.174.
Take C82A A111G A145G C150U U176G: the reverse-splicing fitness is 0.0317.
Turning to C82A A111G A145G C150U U176A, the reverse-splicing fitness was found to be 0.115.
As to C82A A111G A120U C169A U176A, the reverse-splicing fitness worked out at 0.00268.
On to C82A A111G A120U C169A U176C, for which the reverse-splicing fitness stood at 0.00316.
The result for C82A A111G A120U C169A U176G reads 0.00152; that for C82A A111G A120U A145U C169U U176A, 0.00277.
Take C82A A111G A120U A145U C169U U176C: the reverse-splicing fitness is 0.00256.
As for C82A A111G A120U A145U C169U U176G, the figure is 0.00199; as for C82A A111G A145G C169U U176A, 0.0137.
On to C82A A111G A145G C169U U176G, for which the reverse-splicing fitness turned out to be 0.00606.
For the variant C82A A111G A145G C169U U176C, the reverse-splicing fitness was 0.0149.
As to C82A A111G A120U A145G U176A, the reverse-splicing fitness was determined as 0.00959.
In the case of C82A A111G A120U A145G U176G, the reverse-splicing fitness was found to be 0.00317.
Turning to C82A A111G A120U A145G U176C, the reverse-splicing fitness was found to be 0.0165.
As for C82A A111G A120U A145U C150U C169G U176G, the reverse-splicing fitness came out at 0.00208.
Turning to C82A A111G A120U A145U C150U C169G U176C, the reverse-splicing fitness was 0.00298.
For C82A A111G A120U A145U C150U C169G U176A, the reverse-splicing fitness turned out to be 0.00294.
On to C82A A111G A120U A145G C169U U176A, for which the reverse-splicing fitness is 0.00366.
Consider C82A A111G A120U A145G C169U U176G, for which the reverse-splicing fitness was found to be 0.00173.
Take C82A A111G A120U A145G C169U U176C: the reverse-splicing fitness came to 0.00338.
Consider C82A A111G A120U A145G C169G U176A, for which the reverse-splicing fitness was determined as 0.00375.
C82A A111G A120U A145G C169G U176G: the reverse-splicing fitness is 0.00191.
The result for C82A A111G A120U A145G C169G U176C reads 0.00421; that for C82A A111G A120U A145G C150G C169A, 0.00837.
For the variant C82A A111G A120U A145G C150G C169U, the reverse-splicing fitness was 0.00766.
The result for C82A A111G A120U A145G C150G C169G reads 0.00653; that for C82A A111G A120U A145G C169A, 0.00307.
As for C82A A111G A120U A145G C169U, the figure is 0.00421; as for C82A A111G A120U A145G C169G, 0.00402; as for C82A A111G A120U C150A U176C, 0.00802.
For C82A A111G A120U C150A U176G, the reverse-splicing fitness was 0.00282.
On to C82A A111G A120U C150A U176A, for which the reverse-splicing fitness was determined as 0.00595.
For the variant C82A A111G A120U C150A C169A, the reverse-splicing fitness was 0.00447.
With C82A A111G A120U C150A C169G, the reverse-splicing fitness is 0.00463.
As for C82A A111G A120U C150A C169U, the figure is 0.00375.
Regarding C82A A111G A145C C150G C169U U176G, the reverse-splicing fitness worked out at 0.00568.
On to C82A A111G A145C C150G C169U U176C, for which the reverse-splicing fitness was 0.0106.
The result for C82A A111G A145C C150G C169U U176A reads 0.00799; that for C82A A111G A120U C150U C169U U176C, 0.00428; that for C82A A111G A120U C150U C169U U176A, 0.00475.
Take C82A A111G A120U C150U C169U U176G: the reverse-splicing fitness came to 0.00221.
For C82A A111G A145C C150U C169G U176G, the reverse-splicing fitness worked out at 0.00676.
With C82A A111G A145C C150U C169G U176C, the reverse-splicing fitness came to 0.0114.
In the case of C82A A111G A145C C150U C169G U176A, the reverse-splicing fitness amounted to 0.0215.
For C82A A111G A145C C150G C169G, the reverse-splicing fitness amounted to 0.00702.
Turning to C82A A111G A145C C150G C169A, the reverse-splicing fitness worked out at 0.00898.
For the variant C82A A111G A145C C150G C169U, the reverse-splicing fitness stood at 0.00926.
In the case of C82A A111G A145G C150U C169G U176A, the reverse-splicing fitness is 0.0156.
For C82A A111G A145G C150U C169G U176G, the reverse-splicing fitness came out at 0.00644.
For the variant C82A A111G A145G C150U C169G U176C, the reverse-splicing fitness was 0.0198.
The result for C82A A111G A120U C169U U176G reads 0.00235.
In the case of C82A A111G A120U C169U U176A, the reverse-splicing fitness was found to be 0.00447.
For C82A A111G A120U C169U U176C, the reverse-splicing fitness worked out at 0.00427.
For C82A A111G A145C C169A, the reverse-splicing fitness is 0.0076.
Consider C82A A111G A145C C169G, for which the reverse-splicing fitness is 0.00994.
As for C82A A111G A145C C169U, the reverse-splicing fitness came out at 0.0119.
Take C82A A111G A145G C150G U176C: the reverse-splicing fitness turned out to be 0.0188.
Regarding C82A A111G A145G C150G U176A, the reverse-splicing fitness is 0.00955.
